Test results published in PMC9308819 (Nature Communications, 2022).

T1: Rab3A (Homo sapiens (Human), UniProt P20336)
T1 chain: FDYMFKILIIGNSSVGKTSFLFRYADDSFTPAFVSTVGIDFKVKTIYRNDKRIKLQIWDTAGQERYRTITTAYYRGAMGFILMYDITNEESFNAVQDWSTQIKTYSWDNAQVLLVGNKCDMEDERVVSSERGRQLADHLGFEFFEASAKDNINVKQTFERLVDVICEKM

T2: Rab27A (Homo sapiens (Human), UniProt P51159)
T2 chain: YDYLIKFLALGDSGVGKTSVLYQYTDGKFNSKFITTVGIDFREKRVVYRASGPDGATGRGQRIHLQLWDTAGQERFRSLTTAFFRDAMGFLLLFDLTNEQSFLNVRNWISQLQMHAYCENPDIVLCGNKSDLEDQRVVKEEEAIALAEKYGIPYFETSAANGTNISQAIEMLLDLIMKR

T3: Rab3D (Homo sapiens (Human), UniProt O95716)
T3 chain: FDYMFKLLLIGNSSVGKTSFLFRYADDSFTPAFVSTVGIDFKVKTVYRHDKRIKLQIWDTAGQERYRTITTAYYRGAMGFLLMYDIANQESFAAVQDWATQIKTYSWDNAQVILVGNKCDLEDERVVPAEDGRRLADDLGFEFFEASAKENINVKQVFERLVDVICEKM

T4: Rab3B (Homo sapiens (Human), UniProt P20337)
T4 chain: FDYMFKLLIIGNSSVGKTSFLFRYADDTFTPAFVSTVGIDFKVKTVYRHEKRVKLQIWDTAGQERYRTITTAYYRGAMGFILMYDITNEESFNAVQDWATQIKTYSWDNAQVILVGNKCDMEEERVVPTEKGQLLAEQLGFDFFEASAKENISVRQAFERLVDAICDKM

T5: Rep15 L88A (human, UniProt Q6BDI9 1-236, N101D | L88A)
T5 sequence: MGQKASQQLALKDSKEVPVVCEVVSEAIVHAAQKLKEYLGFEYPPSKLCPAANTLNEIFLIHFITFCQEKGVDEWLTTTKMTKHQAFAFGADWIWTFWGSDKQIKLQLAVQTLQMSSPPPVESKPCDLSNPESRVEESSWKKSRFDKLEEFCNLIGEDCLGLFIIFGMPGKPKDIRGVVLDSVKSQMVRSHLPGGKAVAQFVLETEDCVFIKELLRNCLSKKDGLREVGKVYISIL

T6: Rep15 D158A (human, UniProt Q6BDI9 1-236, N101D | D158A)
T6 sequence: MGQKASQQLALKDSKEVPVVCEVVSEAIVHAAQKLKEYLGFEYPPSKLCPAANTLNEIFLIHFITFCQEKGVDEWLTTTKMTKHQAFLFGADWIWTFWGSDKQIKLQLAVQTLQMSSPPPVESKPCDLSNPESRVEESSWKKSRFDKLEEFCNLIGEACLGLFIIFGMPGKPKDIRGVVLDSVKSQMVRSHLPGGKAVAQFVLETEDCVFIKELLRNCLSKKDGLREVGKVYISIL

T7: Rep15 W140A (human, UniProt Q6BDI9 1-236, N101D | W140A)
T7 sequence: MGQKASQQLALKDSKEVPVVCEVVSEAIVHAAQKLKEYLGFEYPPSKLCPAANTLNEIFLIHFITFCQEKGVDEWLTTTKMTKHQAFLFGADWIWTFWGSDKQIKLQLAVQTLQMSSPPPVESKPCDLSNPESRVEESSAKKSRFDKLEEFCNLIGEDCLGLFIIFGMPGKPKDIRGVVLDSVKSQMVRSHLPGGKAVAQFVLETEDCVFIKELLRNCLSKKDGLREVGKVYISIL

T8: Rep15 Q85A (human, UniProt Q6BDI9 1-236, N101D | Q85A)
T8 sequence: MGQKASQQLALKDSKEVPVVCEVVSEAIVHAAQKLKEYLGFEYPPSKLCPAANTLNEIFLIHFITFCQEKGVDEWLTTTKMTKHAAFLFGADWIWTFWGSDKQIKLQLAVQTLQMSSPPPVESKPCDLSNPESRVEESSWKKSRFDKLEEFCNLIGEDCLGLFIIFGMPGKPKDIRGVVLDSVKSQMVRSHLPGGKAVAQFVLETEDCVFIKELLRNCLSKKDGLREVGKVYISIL

T9: Rep15, full length (natural N101D variant) (human, UniProt Q6BDI9 1-236, N101D)
T9 construct: also called full-length Rep15; Rab15 effector protein
T9 sequence (looked up): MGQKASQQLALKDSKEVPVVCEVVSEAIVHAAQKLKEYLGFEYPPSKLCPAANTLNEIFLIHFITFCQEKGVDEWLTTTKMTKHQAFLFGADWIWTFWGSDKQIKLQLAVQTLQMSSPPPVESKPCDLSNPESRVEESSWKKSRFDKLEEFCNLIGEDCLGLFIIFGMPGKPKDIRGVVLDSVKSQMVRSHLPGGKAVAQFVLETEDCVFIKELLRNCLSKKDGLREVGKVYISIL

T10: Rep15 H84A (human, UniProt Q6BDI9 1-236, N101D | H84A)
T10 construct: Limits probably as full-length wild type; source: E. coli BL21 Codon-Plus(DE3)-RIL, purified
T10 sequence: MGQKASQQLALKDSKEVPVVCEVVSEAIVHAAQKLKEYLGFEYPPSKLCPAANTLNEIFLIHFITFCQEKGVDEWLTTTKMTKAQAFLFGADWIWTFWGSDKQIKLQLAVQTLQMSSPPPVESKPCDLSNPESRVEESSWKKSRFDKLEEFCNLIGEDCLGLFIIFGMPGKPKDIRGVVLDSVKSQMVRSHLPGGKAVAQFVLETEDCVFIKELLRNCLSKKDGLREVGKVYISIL

T11: Rep15 L88A (human, UniProt Q6BDI9 1-236, N101D | L88A)
T11 construct: Limits probably as full-length wild type; source: E. coli BL21 Codon-Plus(DE3)-RIL, purified
T11 sequence: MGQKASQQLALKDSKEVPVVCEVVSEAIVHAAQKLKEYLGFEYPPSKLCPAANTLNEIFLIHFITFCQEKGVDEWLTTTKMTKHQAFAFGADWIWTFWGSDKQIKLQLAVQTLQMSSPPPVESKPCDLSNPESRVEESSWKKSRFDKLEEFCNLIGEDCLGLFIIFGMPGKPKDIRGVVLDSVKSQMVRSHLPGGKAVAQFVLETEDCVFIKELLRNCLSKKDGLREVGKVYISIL

T12: Rep15 W140A (human, UniProt Q6BDI9 1-236, N101D | W140A)
T12 construct: source: E. coli BL21 Codon-Plus(DE3)-RIL, purified
T12 sequence: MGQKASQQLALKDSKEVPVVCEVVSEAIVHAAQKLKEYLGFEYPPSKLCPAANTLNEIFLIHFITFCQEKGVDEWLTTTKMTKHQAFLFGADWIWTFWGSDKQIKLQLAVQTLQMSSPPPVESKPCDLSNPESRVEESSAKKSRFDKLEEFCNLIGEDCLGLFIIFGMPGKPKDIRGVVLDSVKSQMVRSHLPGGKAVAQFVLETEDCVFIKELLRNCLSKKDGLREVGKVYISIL

T13: Rep15 D158A (human, UniProt Q6BDI9 1-236, N101D | D158A)
T13 construct: Limits probably as full-length wild type; source: E. coli BL21 Codon-Plus(DE3)-RIL, purified
T13 sequence: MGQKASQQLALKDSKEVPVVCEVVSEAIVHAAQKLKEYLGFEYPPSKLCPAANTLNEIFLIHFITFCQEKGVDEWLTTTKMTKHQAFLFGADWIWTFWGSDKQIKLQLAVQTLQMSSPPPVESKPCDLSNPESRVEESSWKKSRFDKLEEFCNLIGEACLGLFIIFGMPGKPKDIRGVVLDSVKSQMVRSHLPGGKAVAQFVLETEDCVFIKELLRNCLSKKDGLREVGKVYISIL

T14: Rep15 V135A (human, UniProt Q6BDI9 1-236, N101D | V135A)
T14 construct: source: E. coli BL21 Codon-Plus(DE3)-RIL, purified
T14 sequence: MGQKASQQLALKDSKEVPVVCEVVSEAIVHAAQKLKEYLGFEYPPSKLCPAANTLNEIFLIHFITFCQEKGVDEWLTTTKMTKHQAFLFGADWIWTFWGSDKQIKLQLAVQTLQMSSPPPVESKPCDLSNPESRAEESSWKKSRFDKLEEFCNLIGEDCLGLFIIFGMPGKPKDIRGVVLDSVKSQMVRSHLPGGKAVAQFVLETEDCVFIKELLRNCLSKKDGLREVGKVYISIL

T15: Rep15 Q85A (human, UniProt Q6BDI9 1-236, N101D | Q85A)
T15 construct: Limits probably as full-length wild type; source: E. coli BL21 Codon-Plus(DE3)-RIL, purified
T15 sequence: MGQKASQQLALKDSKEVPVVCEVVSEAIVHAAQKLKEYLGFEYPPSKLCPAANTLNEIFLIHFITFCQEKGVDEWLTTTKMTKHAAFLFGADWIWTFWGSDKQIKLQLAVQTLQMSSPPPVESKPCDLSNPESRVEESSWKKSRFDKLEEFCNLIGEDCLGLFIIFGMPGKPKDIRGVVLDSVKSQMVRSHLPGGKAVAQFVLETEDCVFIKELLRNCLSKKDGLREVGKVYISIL


Columns and labels:
Rab3A = molecular target: T1, Rab3A; assay: ITC
Rab27A = molecular target: T2, Rab27A; assay: ITC
Rab3D = molecular target: T3, Rab3D; assay: ITC
Rab3B = molecular target: T4, Rab3B; assay: ITC
Rep15 L88A [1] = molecular target: T5, Rep15 L88A; assay: ITC
Rep15 D158A [2] = molecular target: T6, Rep15 D158A; assay: ITC
Rep15 W140A [3] = molecular target: T7, Rep15 W140A; assay: ITC
Rep15 Q85A [4] = molecular target: T8, Rep15 Q85A; assay: ITC
[5] = molecular target: T9, Rep15, full length (natural N101D …); assay: stopped-flow fluorescence intensity; association; 0.5 µM mant-GppNHp Rab3A mixed with increasing Rep15 (2–14 µM); 25 °C; 20 mM Hepes 8.0, 50 mM NaCl, 1 mM MgCl2, 2 mM DTE; koff from the intercept, KD as koff/kon; details: both partners purified
Rep15 H84A = molecular target: T10, Rep15 H84A; assay: ITC; 500/600 µM GppNHp/GTP Rab titrated into 50/60 µM Rep15; 20 mM Hepes 8.0, 50 mM NaCl, 1 mM MgCl2, 1 mM TCEP; one-site-binding model; details: both partners purified
Rep15 L88A [6] = molecular target: T11, Rep15 L88A; assay: as above; details: both partners purified
Rep15 W140A [7] = molecular target: T12, Rep15 W140A; assay: as above; details: both partners purified
Rep15 D158A [8] = molecular target: T13, Rep15 D158A; assay: as above; details: both partners purified
Rep15 V135A = molecular target: T14, Rep15 V135A; assay: as above; details: both partners purified
Rep15 Q85A [9] = molecular target: T15, Rep15 Q85A; assay: as above; details: both partners purified

| Kd (Rab3A) [µM] | Kd (Rab27A) [µM] | Kd (Rab3D) [µM] | Kd (Rab3B) [µM] | Kd (Rep15 L88A [1]) [µM] | Kd (Rep15 D158A [2]) [µM] | Kd (Rep15 W140A [3]) [µM] | Kd (Rep15 Q85A [4]) [µM] | Kd [5] [µM] | koff [5] [s⁻¹] | kon [5] [M⁻¹ s⁻¹] | binding result (Rep15 H84A) | fold reduction in affinity against wild-type Rep15 (Rep15 L88A [6]) [fold] | binding result (Rep15 W140A [7]) | fold reduction in affinity against wild-type Rep15 (Rep15 D158A [8]) [fold] | binding result (Rep15 V135A) | fold reduction in affinity against wild-type Rep15 (Rep15 Q85A [9]) [fold] | Binder |
| --- | --- | --- | --- | --- | --- | --- | --- | --- | --- | --- | --- | --- | --- | --- | --- | --- | --- |
| 0.48 | 86.2 | 0.79 | 2.16 | – | – | – | – | – | – | – | – | – | – | – | – | – | Rep15 (protein) VPVVCEVVSEAIVHAAQKLKEYLGFEYPPSKLCPAANTLNEIFLIHFITFCQEKGVDEWLTTTKMTKHQAFLFGADWIWTFWGSNKQIKLQLAVQTLQMSSPPPVESKPCDLSNPESRVEESSWKKSRFDKLEEFCNLIGEDCLGLFIIFGMPGKPKDIRGVVLDSVKSQMVRSHLPGGKAVAQFVLETEDCVFIKELLRNCLSKKDGLREVGKVYISIL |
| – | – | – | – | 9.7 | 5.59 | 0.4 | 18.5 | 0.44 to 0.53 | 4.29 | 9.72e+06 | binds | 20 | binds | 12 | binds | > 30 | Rab3A, purified, nucleotide-loaded (natural protein, human, UniProt P20336 1-220, looked up, Rab3A, human; Loaded with GppNHp (aSEC, ITC) or mant-GppNHp (stopped flow); also called Rab3A_(GppNHp); Rab3A_(mantGppNHp); source: E. coli BL21 Codon-Plus (DE3)-RIL, purified (Ni Sepharose, TEV cleavage, gel filtration)) MASATDSRYGQKESSDQNFDYMFKILIIGNSSVGKTSFLFRYADDSFTPAFVSTVGIDFKVKTIYRNDKRIKLQIWDTAGQERYRTITTAYYRGAMGFILMYDITNEESFNAVQDWSTQIKTYSWDNAQVLLVGNKCDMEDERVVSSERGRQLADHLGFEFFEASAKDNINVKQTFERLVDVICEKMSESLDTADPAVTGAKQGPQLSDQQVPPHQDCAC |
